The values below come from patent US20240254227A1 (Alector, published 2024).

The labels stand for the following.
T1: murine CD300LB stably expressed on Jurkat cells (mouse, UniProt Q3U497 18-209)
T1 construct: also called muCD300LB; mouse CD300LB
T1 sequence: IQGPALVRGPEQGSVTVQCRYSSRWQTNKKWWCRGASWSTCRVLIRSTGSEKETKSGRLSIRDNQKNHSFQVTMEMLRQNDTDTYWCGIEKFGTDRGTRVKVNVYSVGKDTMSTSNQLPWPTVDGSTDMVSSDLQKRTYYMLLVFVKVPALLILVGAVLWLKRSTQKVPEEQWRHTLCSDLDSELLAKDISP

T2: murine CD300E-Fc (mouse)
T2 construct: mouse IgG2a-Fc fusion (R&D Systems); the entry is the whole fusion chain; also called mCD300E; Mouse CD300E-Fc
T2 chain: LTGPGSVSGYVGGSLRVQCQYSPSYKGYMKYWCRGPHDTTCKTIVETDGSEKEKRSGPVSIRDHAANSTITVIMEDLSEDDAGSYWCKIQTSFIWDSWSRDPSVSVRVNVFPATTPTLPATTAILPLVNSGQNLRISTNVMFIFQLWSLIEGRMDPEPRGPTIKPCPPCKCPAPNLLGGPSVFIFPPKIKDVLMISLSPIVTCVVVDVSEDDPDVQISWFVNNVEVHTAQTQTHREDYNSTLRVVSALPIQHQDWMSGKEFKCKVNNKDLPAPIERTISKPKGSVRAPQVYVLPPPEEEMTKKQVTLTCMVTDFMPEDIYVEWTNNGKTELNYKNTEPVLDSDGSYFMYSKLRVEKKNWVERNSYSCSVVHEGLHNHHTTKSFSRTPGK

B1: anti-CD300LB antibody CD-18 (antibody, V domains shown)
VH: DVQLQESGPDLVKPSQSLSLTCTVTGYSITSGYSWHWIRQFPDNKLEWMGYILSRGDTNFNPSLKSRISITRSTSNNQFFLHFNSVTTEDTATYYCARDFFDYWGQGTTLTVSS
VL: DVLMTQTPLSLPVSLGDQASISCRSSQSIVHSNGNTYLEWYLQKPGQSPKLLIYKVSDRFSGVPDRFSGSGSGTDFTLKISRVEAEDLGVYFCFQGSHVPYTFGGGTKLEIK
B2: anti-CD300LB antibody CD-17 (antibody, V domains shown)
VH: QIQLVQSGPELKKPGETVKISCKASGYTLTDYSMHWVKQAPGKGLKWMGWINTETGEPRYGDDFKGRFAFSLETSASSAYLQINNLKNDDTATYFCATYGRSYGMDFWGQGTSVTVSS
VL: DIVLTQSPASLAVSLGQRATISCRASKSVSPSGHSYMHWYQQKPGQPPKLLIYLASNLKSGVPARFSGSGSGTDFTLNIHPVEEGDAATYYCQHNRELPPTFGGGSKLEIK
B3: anti-CD300LB antibody CD-10 (antibody, V domains shown)
VH: QVQLQQSGPELVRPGVSVKISCKGSGYTFTDYAMHWVKQSHVRSREWIGVIGTYNGHTNYNQKFKGKATMTVDKSSSTAYLELARLTSEDSAIYYCARSGSYYYSMDYWGQGTSVTVSS
VL: QIVLTQSPAIMSASPGEKVTMTCSASSSVNYMHWYQQKSGTSPKRWIYDTSKLSSGVPARFSGSGSGTSYSLTISTMEAEDAATYYCQQWSSNPPMTFGGGTKLEIK

T3 sequence (chain, as listed by the source limits assumed): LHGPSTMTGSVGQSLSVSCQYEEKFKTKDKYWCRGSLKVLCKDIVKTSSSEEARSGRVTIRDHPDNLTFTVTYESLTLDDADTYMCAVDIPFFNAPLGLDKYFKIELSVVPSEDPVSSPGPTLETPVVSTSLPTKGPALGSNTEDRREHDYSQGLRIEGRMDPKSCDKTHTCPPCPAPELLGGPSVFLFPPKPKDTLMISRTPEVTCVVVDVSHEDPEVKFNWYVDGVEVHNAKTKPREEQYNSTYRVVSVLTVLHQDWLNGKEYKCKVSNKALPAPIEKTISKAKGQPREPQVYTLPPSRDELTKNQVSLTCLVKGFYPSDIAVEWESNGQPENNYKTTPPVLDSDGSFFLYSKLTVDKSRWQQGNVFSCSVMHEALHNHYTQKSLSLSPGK

One assay concerns the target T1, murine CD300LB stably expressed on …. Briefly: flow cytometry, stable Jurkat cells, 10 ug/mL, isotype subtracted. The protocol: Purified anti-CD300LB antibodies of the present disclosure were analyzed for cross-reactivity to other murine CD300 family members stably expressed in Jurkat cells (generation of which is described above). Cells were counted and labeled with 200 nM CFSE, 500 nM VioBlue, or a combination of the two to discriminate between muCD300LB, Parental cells, CD300F, and the other CD300 family members. Cells were washed thoroughly with PBS containing 2% fetal bovine serum then resuspended at a total of 240,000 cells per well. Purified antibodies at 10 μg/mL were added and incubated for one hour before the cells were washed twice again and stained with an APC-labeled anti-mouse secondary. Cells were then analyzed using a BD FACSCanto II. Antibodies were analyzed for specific binding to muCD300LB by FlowJo software by gating on live cells, then the APC gMFI calculated for each labeled population by subtracting the gMFI of the isotype control. The gMFI results of the analysis are presented below in Table 4.
As to B1, the gMFI came to 2520 gMFI.

As to B2, the gMFI turned out to be 7920 gMFI.

For the molecule B3, the gMFI stood at 1610 gMFI.

The target is the same in the next assay. Briefly: flow cytometry, stable Jurkat cells, supernatant or 10 ug/mL, isotype subtracted. The protocol: Purified anti-CD300LB antibodies of the present disclosure were also evaluated for species cross-reactivity to mouse and human CD300LB stably expressed in Jurkat cells (generation of which is described above). Cells were counted and labeled with 200 nM CFSE, 500 nM VioBlue, or a combination of the two to discriminate between human CD300LB, Parental cells and mouse CD300LB. Cells were washed thoroughly with PBS containing 2% fetal bovine serum then resuspended at a total of 240,000 cells per well. Hybridoma supernatants (100 L) or purified antibodies at 10 μg/mL were added and incubated for one hour before the cells were washed again and stained with an APC-labeled anti-human or anti-mouse secondary. Cells were then analyzed using a BD FACSCanto II. Antibodies were analyzed for binding to mouse or human CD300LB by FlowJo software by gating on live cells, then the APC gMFI calculated for each labeled population by subtraction of the gMFI of the appropriate isotype control.
B1: the gMFI worked out at 643 gMFI.

Consider B2, for which the gMFI turned out to be 1680 gMFI.

B3: the gMFI amounted to 284 gMFI.

Another assay concerns the target T3, murine CD300A-Fc (mouse).
T3 construct: hIgG1-Fc fusion; the entry is the whole fusion chain; also called mCD300A; Mouse CD300A-Fc
Briefly: SPR (Carterra LSA), antibody immobilised. An excerpt:
(§1) In addition to the screening of antibodies for cross-reactivity by FACS analysis, surface plasmon resonance (SPR) analysis was used to determine the binding of antibodies to recombinant huCD300 and muCD300 family members (orthologs) conjugated to an Fc (human CD300A-Fc SEQ ID NO:144; human CD300LB-Fc SEQ ID NO:145; human CD300C-Fc SEQ ID NO: 146; human CD300D-Fc SEQ ID NO: 147; human CD300E-Fc SEQ ID NO: 148; human CD300F-Fc SEQ ID NO: 149; murine CD300A-Fc SEQ ID NO: 150; murine CD300LB-Fc SEQ ID NO:151; murine CD300C-Fc SEQ ID NO: 152; murine CD300D-Fc SEQ ID NO: 153, and murine CD300E-Fc SEQ ID NO: 154).
(§2) Binding of mouse anti-CD300LB IgG1 antibodies of the present disclosure to human and murine CD300 orthologs were evaluated by surface plasmon resonance (SPR) using a Carterra LSA instrument (Carterra, Salt Lake City, UT). […] A HC200M sensor chip (Carterra) was activated using the single channel flow cell with a 7-minute injection of a 1:1:1 mixture of 100 mM MES pH 5.5, 100 mM sulfo-NHS, 400 mM EDC (all reconstituted in MES pH 5.5; 100 μL of each mixed in vial immediately before running assay). After switching to the multi-channel array flow cell, the antibodies were injected over the activated chip in a 96-spot array for 10 minutes. The remaining unconjugated active groups on the chip were then blocked by injecting 1M Ethanolamine pH 8.5 (Carterra) for 7 minutes using the single channel flow cell. After priming with running buffer (HBS-TE, Carterra) with 0.5 mg/ml BSA (Sigma), the immobilized anti-CD300LB antibodies were tested for their ability to bind human and mouse recombinant CD300LB extracellular domains. Human CD300 family members and mouse CD300A were hIgG1-Fc fusions, while mouse CD300LB, mouse CD300C, mouse CD300D, and mouse CD300E were mouse IgG2a-Fc fusions (R&D Systems). Binding was assessed by injecting each analyte over the entire antibody array using the single channel flow cell. CD300 analytes were diluted to 300 nM or 600 nM in running buffer and injected in series without regeneration. Two or three buffer blanks were run between each mouse or human ortholog, respectively. Data were processed and analyzed using NextGenKIT high-throughput kinetics analysis software (Carterra).
For the molecule B1, the binding result is reported as “no binding (tested: 300 nM or 600 nM)”.

For the molecule B2, the binding result is “no binding (tested: 300 nM or 600 nM)”.

Take B3: the binding result is recorded as “no binding (tested: 300 nM or 600 nM)”.

Another assay addresses T2, murine CD300E-Fc. Put plainly: SPR (Carterra LSA), antibody immobilised.
Description: as §1, §2
Regarding B1, the binding result is on record as “no binding (tested: 300 nM or 600 nM)”.

Regarding B2, the binding result is “no binding (tested: 300 nM or 600 nM)”.

For B3, the binding result is on record as “no binding (tested: 300 nM or 600 nM)”.
